Legend:
human CD73 [1] = target: T1, human CD73 (human, UniProt P21589 27-549); assay: Biacore SPR
T1 construct: the antigen of the Biacore assay is only called human CD73 antigen; also called human CD73 antigen; Recombinant Human CD73-6xHis
T1 sequence: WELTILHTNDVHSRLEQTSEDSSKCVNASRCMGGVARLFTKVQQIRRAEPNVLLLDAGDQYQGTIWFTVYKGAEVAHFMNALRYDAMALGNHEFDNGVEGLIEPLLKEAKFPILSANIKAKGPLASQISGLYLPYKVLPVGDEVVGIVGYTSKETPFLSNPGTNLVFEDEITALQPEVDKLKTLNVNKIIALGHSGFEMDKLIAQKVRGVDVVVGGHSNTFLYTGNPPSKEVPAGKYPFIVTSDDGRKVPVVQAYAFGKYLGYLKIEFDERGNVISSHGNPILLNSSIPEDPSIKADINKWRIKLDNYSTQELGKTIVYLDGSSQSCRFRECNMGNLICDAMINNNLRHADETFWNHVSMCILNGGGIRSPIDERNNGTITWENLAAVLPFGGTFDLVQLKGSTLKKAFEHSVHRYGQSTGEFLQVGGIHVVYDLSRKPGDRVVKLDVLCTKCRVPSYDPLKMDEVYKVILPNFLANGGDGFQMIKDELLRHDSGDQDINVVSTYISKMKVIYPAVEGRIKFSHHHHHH

mCD73hF2 (mouse; human) = mCD73hF2 (mouse; human) (UniProt Q61503); assay: ELISA, antibody titrated; panel mCD73 hF2
[2] = target: mCD73hF1-S269A (mouse; human) (UniProt Q61503); assay: ELISA, 10H5 titrated on the mutant protein
[3] = target: mouse CD73-D296E-K297R (mouse) (UniProt Q61503); assay: ELISA, 10H5 titrated on the mutant protein
[4] = target: T2, human CD73 on cells (MDA-MB-231, Calu-1, KLM-1, human CD4+ T-cells) (human, UniProt P21589 27-549); assay: cell-based or functional assay
T2 sequence: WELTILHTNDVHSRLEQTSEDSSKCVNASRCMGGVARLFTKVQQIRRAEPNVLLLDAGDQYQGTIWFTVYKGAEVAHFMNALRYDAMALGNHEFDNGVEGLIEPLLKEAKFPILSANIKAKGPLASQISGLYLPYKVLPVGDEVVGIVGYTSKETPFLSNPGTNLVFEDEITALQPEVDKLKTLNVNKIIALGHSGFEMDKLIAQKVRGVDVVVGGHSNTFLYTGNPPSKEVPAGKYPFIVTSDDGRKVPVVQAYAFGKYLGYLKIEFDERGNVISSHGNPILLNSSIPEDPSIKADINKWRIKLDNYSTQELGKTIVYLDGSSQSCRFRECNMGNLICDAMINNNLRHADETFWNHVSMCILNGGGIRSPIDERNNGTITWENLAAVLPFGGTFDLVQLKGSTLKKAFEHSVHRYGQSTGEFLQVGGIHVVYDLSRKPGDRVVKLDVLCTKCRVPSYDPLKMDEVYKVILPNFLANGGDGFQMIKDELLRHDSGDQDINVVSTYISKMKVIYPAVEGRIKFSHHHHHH

[5] = target: mCD73hF1-R297K (mouse; human) (UniProt Q61503); assay: ELISA
[6] = target: mouse CD73-D296E-K297R (mouse) (UniProt Q61503); assay: ELISA
mCD73hF1-K206A-N211G = target: T3, mCD73hF1-K206A-N211G (mouse; human, UniProt Q61503 29-270; Q61503 307-551); assay: ELISA, antibody titrated; panel mCD73 hF1 K206A N211G
T3 chain: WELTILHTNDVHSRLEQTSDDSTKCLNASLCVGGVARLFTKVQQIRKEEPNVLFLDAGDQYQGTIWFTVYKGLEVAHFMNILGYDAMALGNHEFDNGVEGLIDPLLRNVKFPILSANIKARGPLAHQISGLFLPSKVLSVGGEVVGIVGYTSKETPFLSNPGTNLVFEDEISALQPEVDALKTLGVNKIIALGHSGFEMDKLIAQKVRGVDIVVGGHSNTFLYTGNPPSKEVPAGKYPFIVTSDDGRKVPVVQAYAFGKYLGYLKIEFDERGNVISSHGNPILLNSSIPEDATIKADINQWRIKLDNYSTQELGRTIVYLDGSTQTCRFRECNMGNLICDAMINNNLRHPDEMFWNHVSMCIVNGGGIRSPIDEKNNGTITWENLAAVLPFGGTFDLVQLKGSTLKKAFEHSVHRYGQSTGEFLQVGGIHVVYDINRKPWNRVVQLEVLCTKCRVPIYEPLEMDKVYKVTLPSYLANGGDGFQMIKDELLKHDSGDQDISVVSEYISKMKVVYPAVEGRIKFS

mCD73hF4 = target: T4, mCD73hF4 (human; mouse, UniProt Q61503 307-551, limits assumed); assay: ELISA, antibody titrated; panel mCD73 hF4
T4 construct: Mouse-human domain swapping protein, expressed in F293 cells
T4 sequence: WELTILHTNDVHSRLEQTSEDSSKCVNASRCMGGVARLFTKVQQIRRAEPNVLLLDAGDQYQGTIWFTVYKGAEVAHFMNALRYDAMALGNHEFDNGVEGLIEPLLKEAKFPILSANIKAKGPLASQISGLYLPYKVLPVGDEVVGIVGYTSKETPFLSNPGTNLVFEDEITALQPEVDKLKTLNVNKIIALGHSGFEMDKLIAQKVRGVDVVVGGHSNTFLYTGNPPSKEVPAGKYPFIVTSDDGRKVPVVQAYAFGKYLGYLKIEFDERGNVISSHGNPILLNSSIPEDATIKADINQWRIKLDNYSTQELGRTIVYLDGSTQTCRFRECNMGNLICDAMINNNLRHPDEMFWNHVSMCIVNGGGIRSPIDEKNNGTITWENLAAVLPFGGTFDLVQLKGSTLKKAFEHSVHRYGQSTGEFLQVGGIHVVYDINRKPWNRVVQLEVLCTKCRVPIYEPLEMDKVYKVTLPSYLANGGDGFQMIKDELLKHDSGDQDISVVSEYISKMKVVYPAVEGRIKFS

human CD73 [7] = target: T1, human CD73; assay: Biacore SPR; remark: listed apart in the source
mCD73hF1 (mouse; human) [8] = target: mCD73hF1 (mouse; human) (UniProt Q61503); assay: ELISA, antibody titrated; right panel mCD73 hF1
mCD73hF1 (mouse; human) [9] = target: mCD73hF1 (mouse; human) (UniProt Q61503); assay: ELISA, antibody titrated; panel mCD73 hF1
mCD73hF3 (mouse; human) = mCD73hF3 (mouse; human) (UniProt Q61503); assay: ELISA, antibody titrated; panel mCD73 hF3

B1: 10H5 antibody (antibody, V domains shown)
VH: QVKLQQSGAELVKPGASVKISCKASGYVFSSYWINWVKQRPGKGLEWIGQIYPGDGNTNYNRNFKGKATLTADKSSSTAYMQLSSLTSEDSAVYFCAGFADWGQGTTVTVSS
VL: DIELTQSPSSLSASLGERVSLTCRASQDIGDSLIWLQQEPDGTIKRLIYATSSLDSGVPKRFSGSRSGTSYSLTISSVEAEDAATYYCQQYSGYPLTFGSGTKLEIK
notes: Mouse scFv-derived variable domains put into an expression vector with CH and CL chains (full-length chimeric antibody); also called 10H5 chimeric; 10H5 MM
Human CD73 [1]
  koff: 5.78e-05 s⁻¹
  kon: 84600 M⁻¹ s⁻¹
mCD73hF2 (mouse; human)
  EC50 (read off the curve): 200 pM
[2]
  EC50 (read off the curve): 500 pM
[3]
  EC50 (read off the curve): 200 pM
[4]
  AMP concentration in supernatant by LC/MS, MDA-MB-231 cells, 400 µM AMP, 10 nM antibody, 6 hours: 347 µM
  AMP concentration in supernatant by LC/MS, MDA-MB-231 cells, 400 µM AMP, 10 nM antibody, 24 hours: 290 µM
  AMP consumption, Calu-1 cells, 10 nM antibody, 24 hrs: < 20%
  AMP consumption, MDA-MB-231 cells, 10 nM antibody, 6 hr: < 10%
  AMP consumption, MDA-MB-231 cells, 10 nM antibody, 24 h: < 50%
[5]
  binding affinity relative to that to mCD73hF1: 0.1 fold
[6]
  Kd: 0.098 nM
mCD73hF1-K206A-N211G
  EC50 (read off the curve): ~200 pM
mCD73hF4
  EC50 (read off the curve): ~200 pM
Human CD73 [7]
  Kd: 0.683 nM
mCD73hF1 (mouse; human) [8]
  EC50 (read off the curve): 300 pM
mCD73hF1 (mouse; human) [9]
  EC50 (read off the curve): 300 pM
mCD73hF3 (mouse; human)
  EC50 (read off the curve): 200 pM

From patent US20250136709A1 (DEVELOPMENT CENTER FOR BIOTECHNOLOGY, published 2025)
